# Measured values from the supplement of paper PMC10567573.
# Test: protein stability index of a GFP-peptide fusion (GPS, HEK-293T) (PSI 1-6); higher = more stable
# 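Also: lentivirally expressed fusions sorted by FACS into six bins by GFP to DsRed ratio, PSI derived from sequencing read proportions per bin multiplied by bin number.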
protein,measurement,setting,value
LARKGSLKNGSMGSPVNQQPKKNN [C9orf25 WT],protein stability index,"parent: IOH25834_6, c terminus: a fixed tail appended",4.65
LYTGELDENERDLMHIAHIAELLE,protein stability index,"parent: IOH23244_73, c terminus: a fixed tail appended",2.54
VSHVFMLLFNVKSPTDIQDSSIIR,protein stability index,"parent: IOH25836_47, c terminus: a fixed tail appended",2.27
DEIEFLKKLHEEELRDLQVSVESQ,protein stability index,"parent: IOH21924_38, c terminus: a fixed tail appended",4.78
FVAFALCMFCLYSFMPLVIKVTSA,protein stability index,"parent: IOH25755_45, c terminus: a fixed tail appended",2.87
SFMPLVIKVTSATSVNLGILTADL,protein stability index,"parent: IOH25755_47, c terminus: a fixed tail appended",2.79
KVVEAHKIVLCAVSHVFMLLFNVK,protein stability index,"parent: IOH25836_45, c terminus: a fixed tail appended",2.49
VTEDLRLKDWEHSIALRNISLAKG [SCARA5 WT],protein stability index,"parent: IOH23227_48, c terminus: a fixed tail appended",3.31
IVGFGLYGSIHGPTDYQVNIQIIE,protein stability index,"parent: IOH21551_61, c terminus: a fixed tail appended",3.17
FPELGYSYGGGSASSQHSEGSRSS,protein stability index,"parent: IOH21682_93, c terminus: a fixed tail appended",3.14
YHEAPMTRKHYQVTGYGINGTGDS,protein stability index,"parent: IOH22744_72, c terminus: a fixed tail appended",2.29
DSCCPAGIFQAMCLLICAEMYQVS,protein stability index,"parent: IOH25836_81, c terminus: a fixed tail appended",3.09
YSSSKGSLRLCDMRAAALCDKHSK [PPP2R2C WT],protein stability index,"parent: IOH22415_38, c terminus: a fixed tail appended",1.74
HPDPAPFCADNPSELPPPMERTGG,protein stability index,"parent: IOH21682_15, c terminus: a fixed tail appended",2.73
FDHLQNRLIATKNPEEIRGGGLLK,protein stability index,"parent: IOH22484_38, c terminus: a fixed tail appended",3.8
WTMQAYERNFWDPSPQLDTQQEIK,protein stability index,"parent: IOH25728_43, c terminus: a fixed tail appended",2.62
YQGPGTRRLQEVLGVQTGGPGGRR,protein stability index,"parent: IOH14793_62, c terminus: a fixed tail appended",3.2
VLRSRIRFIHLVTGCVLGSSGKVL,protein stability index,"parent: IOH22744_79, c terminus: a fixed tail appended",2.76
VKYNSCADRPFSAPWWFWLSLTGV,protein stability index,"parent: IOH22744_36, c terminus: a fixed tail appended",2.7
AKAADSPTRNDLESGLGHFSLRVH,protein stability index,"parent: IOH21711_5, c terminus: a fixed tail appended",3.12
YNPHPGFPELGYSYGGGSASSQHS,protein stability index,"parent: IOH21682_92, c terminus: a fixed tail appended",2.58
PSRVHASEVESAVWYVKKFGRYLE,protein stability index,"parent: IOH22759_12, c terminus: a fixed tail appended",2.26
RNTKRDVTLEASRENSKPRAILKP,protein stability index,"parent: IOH22211_62, c terminus: a fixed tail appended",4.59
VHTGCHKKLGPEARRPRTRWGKN,protein stability index,"parent: IOH21711_9, c terminus: native",1.97
LLTITKAHSNAISNCCFTFSGHFL [WDR88 WT],protein stability index,"parent: IOH21600_45, c terminus: a fixed tail appended",3.1
NQEITKAFHVRRTNRVKECLAKGT,protein stability index,"parent: IOH23244_80, c terminus: a fixed tail appended",3.11
VRSRLEEAGIKVHDVRLNGSAAGH,protein stability index,"parent: IOH22484_10, c terminus: a fixed tail appended",2.22
STTEGIQLAKELGATYLELHSLDD,protein stability index,"parent: IOH25836_27, c terminus: a fixed tail appended",3.48
DWRKNIEEKSGMEGRKKMFESES [TNNI2 WT],protein stability index,"parent: IOH23107_29, c terminus: native",2.45
GGADIIVIKYNVNDKFSFHEVKDN,protein stability index,"parent: IOH25836_16, c terminus: a fixed tail appended",2.19
FFIRTSDSFDKFDFCEPSFVTGNC [PCMTD2 WT],protein stability index,"parent: IOH21782_22, c terminus: a fixed tail appended",2.15
PSNRSFFSEIISSISDVKFSHSGR,protein stability index,"parent: IOH22211_46, c terminus: a fixed tail appended",2.33
FEDEVKRLGWQQQAELQELEERLQ [KIAA0774 WT],protein stability index,"parent: IOH21722_11, c terminus: a fixed tail appended",4.08
RFQDLVLRMLEYEPAARISPLGAL,protein stability index,"parent: IOH14793_68, c terminus: a fixed tail appended",2.31
FIGEESVAAGEKSILTDNPTWIID [IMPA1 WT],protein stability index,"parent: IOH21098_12, c terminus: a fixed tail appended",2.05
GVLILFLTFFAFLHCWLNAFAEML,protein stability index,"parent: IOH22371_63, c terminus: a fixed tail appended",2.73
RTFGPPPSLSPGAFSYSSSSRFSS,protein stability index,"parent: IOH21924_4, c terminus: a fixed tail appended",3.3
SDVVDWLYHNVEGFTDRREARKYA,protein stability index,"parent: IOH21682_75, c terminus: a fixed tail appended",2.98
QYLAERYKVNTPMLQSFINYCLLF,protein stability index,"parent: IOH25755_11, c terminus: a fixed tail appended",2.35
EGCGPPLRRWLRANLAASGGYAIA [TSPAN10 WT],protein stability index,"parent: IOH21852_47, c terminus: a fixed tail appended",1.89
HHHHGRDFLLRAASFDVCESVDEA,protein stability index,"parent: IOH23244_56, c terminus: a fixed tail appended",3.72
HVGELIIWDALDWTMQAYERNFWD,protein stability index,"parent: IOH25728_41, c terminus: a fixed tail appended",2.32
VYYIFERLCAPLFRNIKQEPFSAR,protein stability index,"parent: IOH22371_57, c terminus: a fixed tail appended",2.19
LTLKVLRSSSCGDTELLGQATLPV,protein stability index,"parent: IOH21460_59, c terminus: a fixed tail appended",2.3
FCADNPSELPPPMERTGGIGDSRP,protein stability index,"parent: IOH21682_16, c terminus: a fixed tail appended",4.54
KSAAMLAVFAVSAVVHEYALAVCL,protein stability index,"parent: IOH22371_75, c terminus: a fixed tail appended",3.11
TSAEIELPDVEPAAFLALLRFLYS,protein stability index,"parent: IOH21551_20, c terminus: a fixed tail appended",2
RVFKARIYTNRYETNEEDKTLQEI,protein stability index,"parent: IOH22759_67, c terminus: a fixed tail appended",2.51
PSNGRIDIKQLIAKKIKLTAEAEE,protein stability index,"parent: IOH22371_7, c terminus: a fixed tail appended",3.15
FVLGKGRGAAAAGGPQRIPAHRFV,protein stability index,"parent: IOH21551_13, c terminus: a fixed tail appended",1.88
YGSIHGPTDYQVNIQIIEYEKKQT,protein stability index,"parent: IOH21551_62, c terminus: a fixed tail appended",2.54
EPAGSLRELGVWRSLLRLRATRAG,protein stability index,"parent: IOH21460_10, c terminus: a fixed tail appended",2.6
LRGGGQVLLGWTLHYFPFFLMGRV,protein stability index,"parent: IOH22744_107, c terminus: a fixed tail appended",2.33
